Literature values, collected in PMC9866218, “Characterization and Chemical Synthesis of Cm39 (α-KTx 4.8): A Scorpion Toxin That Inhibits Voltage-Gated K^+ Channel KV1.2 and Small- and Intermediate-Conductance Ca^2+-Activated K^+ Channels KCa2.2 and KCa3.1” (Toxins, 2023).
Where two headings read alike, the source gives them in different places.

How the values were obtained:
[1] = target: KCa3.1 (Homo sapiens) (UniProt O15554)
[2] = target: KCa3.1 (Homo sapiens) (UniProt O15554); remark: listed apart in the source

KCa3.1 (Homo sapiens), sequence (O15554 whole entry): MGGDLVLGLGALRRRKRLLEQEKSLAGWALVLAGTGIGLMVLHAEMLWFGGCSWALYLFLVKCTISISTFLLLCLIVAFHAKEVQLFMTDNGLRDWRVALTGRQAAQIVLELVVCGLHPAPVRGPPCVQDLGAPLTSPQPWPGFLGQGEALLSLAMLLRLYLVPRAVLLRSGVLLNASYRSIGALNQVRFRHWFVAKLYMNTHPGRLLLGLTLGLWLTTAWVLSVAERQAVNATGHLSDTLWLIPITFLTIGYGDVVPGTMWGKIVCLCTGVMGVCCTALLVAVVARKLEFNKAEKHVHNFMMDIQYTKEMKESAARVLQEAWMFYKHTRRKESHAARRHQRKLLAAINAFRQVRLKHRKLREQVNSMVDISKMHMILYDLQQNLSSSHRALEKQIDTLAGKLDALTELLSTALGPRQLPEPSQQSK
charybdotoxin (ChTx, α-KTx-1.1), sequence (P13487 23-59): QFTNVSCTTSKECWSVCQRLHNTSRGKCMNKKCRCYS
maurotoxin (MTX, α-KTx-6.2), sequence (P80719 whole entry): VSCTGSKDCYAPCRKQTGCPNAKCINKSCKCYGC

Row | Substance | Kd [1] | Kd [2]
1 | charybdotoxin (ChTx, α-KTx-1.1) (from UniProt P13487) | 5 nM | –
2 | maurotoxin (MTX, α-KTx-6.2) (from UniProt P80719) | – | 1 nM
